{"source": "paper PMC2198822", "about": "(The Journal of Cell Biology, 2001)", "binders": {"B1": {"name": "recombinant mouse vimentin, bacterially expressed and purified (natural protein)", "chain": "not shown"}}, "key": {"[1]": {"target": "T1, formiminotransferase cyclodeaminase (FTCD), bacterially expressed and purified (rat, UniProt O88618 1-541)", "T1 sequence (looked up)": "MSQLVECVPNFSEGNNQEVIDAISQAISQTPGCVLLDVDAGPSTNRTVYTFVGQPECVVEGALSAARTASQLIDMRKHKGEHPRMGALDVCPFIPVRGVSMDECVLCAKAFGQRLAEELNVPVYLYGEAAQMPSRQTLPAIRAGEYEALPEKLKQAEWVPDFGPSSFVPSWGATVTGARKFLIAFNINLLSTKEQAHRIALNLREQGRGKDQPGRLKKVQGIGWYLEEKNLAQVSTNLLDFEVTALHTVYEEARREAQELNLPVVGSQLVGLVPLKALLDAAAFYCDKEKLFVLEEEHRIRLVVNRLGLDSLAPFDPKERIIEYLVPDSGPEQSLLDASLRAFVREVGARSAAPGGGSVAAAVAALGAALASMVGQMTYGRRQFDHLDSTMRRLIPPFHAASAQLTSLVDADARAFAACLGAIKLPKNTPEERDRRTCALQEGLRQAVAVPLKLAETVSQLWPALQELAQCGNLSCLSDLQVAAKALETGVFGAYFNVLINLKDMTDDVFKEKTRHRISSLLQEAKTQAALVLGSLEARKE", "test": "co-sedimentation"}, "[2]": {"target": "T1, formiminotransferase cyclodeaminase …", "test": "far-Western, overlay or dot blot"}, "[3]": {"target": "B1", "test": "far-Western, overlay or dot blot"}}, "data": [{"binder": "B1", "values": [{"measurement": "binding result", "setting": "[1]", "result": "binds"}]}, {"binder": "35S-radiolabeled FTCD generated in vitro by coupled transcription/translation (enzyme, UniProt O88618 1-541, looked up, [35S]methionine and [35S]cysteine label) MSQLVECVPNFSEGNNQEVIDAISQAISQTPGCVLLDVDAGPSTNRTVYTFVGQPECVVEGALSAARTASQLIDMRKHKGEHPRMGALDVCPFIPVRGVSMDECVLCAKAFGQRLAEELNVPVYLYGEAAQMPSRQTLPAIRAGEYEALPEKLKQAEWVPDFGPSSFVPSWGATVTGARKFLIAFNINLLSTKEQAHRIALNLREQGRGKDQPGRLKKVQGIGWYLEEKNLAQVSTNLLDFEVTALHTVYEEARREAQELNLPVVGSQLVGLVPLKALLDAAAFYCDKEKLFVLEEEHRIRLVVNRLGLDSLAPFDPKERIIEYLVPDSGPEQSLLDASLRAFVREVGARSAAPGGGSVAAAVAALGAALASMVGQMTYGRRQFDHLDSTMRRLIPPFHAASAQLTSLVDADARAFAACLGAIKLPKNTPEERDRRTCALQEGLRQAVAVPLKLAETVSQLWPALQELAQCGNLSCLSDLQVAAKALETGVFGAYFNVLINLKDMTDDVFKEKTRHRISSLLQEAKTQAALVLGSLEARKE", "values": [{"measurement": "fold bound relative to BSA", "setting": "[2]", "result": "~6", "unit": "fold"}, {"measurement": "fold bound relative to BSA", "setting": "[3]", "result": "~10", "unit": "fold"}]}]}
